# Experimental data taken from IntAct's records for PubMed 17347647.
# B1: Rho GTPase-activating protein 21 (Homo sapiens), Q5T5U3 (parent)
# chain: MMATRRTGLSEGDGDKLKACEVSKNKDGKEQSETVSLSEDETFSWPGPKTVTLKRTSQGFGFTLRHFIVYPPESAIQFSYKDEENGNRGGKQRNRLEPMDTIFVKQVKEGGPAFEAGLCTGDRIIKVNGESVIGKTYSQVIALIQNSDTTLELSVMPKDEDILQVLQFTKDVTALAYSQDAYLKGNEAYSGNARNIPEPPPICYPWLPSAPSAMAQPVEISPPDSSLSKQQTSTPVLTQPGRAYRMEIQVPPSPTDVAKSNTAVCVCNESVRTVIVPSEKVVDLLSNRNNHTGPSHRTEEVRYGVSEQTSLKTVSRTTSPPLSIPTTHLIHQPAGSRSLEPSGILLKSGNYSGHSDGISSSRSQAVEAPSVSVNHYSPNSHQHIDWKNYKTYKEYIDNRRLHIGCRTIQERLDSLRAASQSTTDYNQVVPNRTTLQGRRRSTSHDRVPQSVQIRQRSVSQERLEDSVLMKYCPRSASQGALTSPSVSFSNHRTRSWDYIEGQDETLENVNSGTPIPDSNGEKKQTYKWSGFTEQDDRRGICERPRQQEIHKSFRGSNFTVAPSVVNSDNRRMSGRGVGSVSQFKKIPPDLKTLQSNRNFQTTCGMSLPRGISQDRSPLVKVRSNSLKAPSTHVTKPSFSQKSFVSIKDQRPVNHLHQNSLLNQQTWVRTDSAPDQQVETGKSPSLSGASAKPAPQSSENAGTSDLELPVSQRNQDLSLQEAETEQSDTLDNKEAVILREKPPSGRQTPQPLRHQSYILAVNDQETGSDTTCWLPNDARREVHIKRMEERKASSTSPPGDSLASIPFIDEPTSPSIDHDIAHIPASAVISASTSQVPSIATVPPCLTTSAPLIRRQLSHDHESVGPPSLDAQPNSKTERSKSYDEGLDDYREDAKLSFKHVSSLKGIKIADSQKSSEDSGSRKDSSSEVFSDAAKEGWLHFRPLVTDKGKRVGGSIRPWKQMYVVLRGHSLYLYKDKREQTTPSEEEQPISVNACLIDISYSETKRKNVFRLTTSDCECLFQAEDRDDMLAWIKTIQESSNLNEEDTGVTNRDLISRRIKEYNNLMSKAEQLPKTPRQSLSIRQTLLGAKSEPKTQSPHSPKEESERKLLSKDDTSPPKDKGTWRKGIPSIMRKTFEKKPTATGTFGVRLDDCPPAHTNRYIPLIVDICCKLVEERGLEYTGIYRVPGNNAAISSMQEELNKGMADIDIQDDKWRDLNVISSLLKSFFRKLPEPLFTNDKYADFIEANRKEDPLDRLKTLKRLIHDLPEHHYETLKFLSAHLKTVAENSEKNKMEPRNLAIVFGPTLVRTSEDNMTHMVTHMPDQYKIVETLIQHHDWFFTEEGAEEPLTTVQEESTVDSQPVPNIDHLLTNIGRTGVSPGDVSDSATSDSTKSKGSWGSGKDQYSRELLVSSIFAAASRKRKKPKEKAQPSSSEDELDNVFFKKENVEQCHNDTKEESKKESETLGRKQKIIIAKENSTRKDPSTTKDEKISLGKESTPSEEPSPPHNSKHNKSPTLSCRFAILKESPRSLLAQKSSHLEETGSDSGTLLSTSSQASLARFSMKKSTSPETKHSEFLANVSTITSDYSTTSSATYLTSLDSSRLSPEVQSVAESKGDEADDERSELISEGRPVETDSESEFPVFPTALTSERLFRGKLQEVTKSSRRNSEGSELSCTEGSLTSSLDSRRQLFSSHKLIECDTLSRKKSARFKSDSGSLGDAKNEKEAPSLTKVFDVMKKGKSTGSLLTPTRGESEKQEPTWKTKIADRLKLRPRAPADDMFGVGNHKVNAETAKRKSIRRRHTLGGHRDATEISVLNFWKVHEQSGERESELSAVNRLKPKCSAQDLSISDWLARERLRTSTSDLSRGEIGDPQTENPSTREIATTDTPLSLHCNTGSSSSTLASTNRPLLSIPPQSPDQINGESFQNVSKNASSAANAQPHKLSETPGSKAEFHPCL
# Variants of: B1
# Conditions: with arf1_mouse Arf1, P84078
# Chain of arf1_mouse Arf1, P84078 (P84078 whole entry): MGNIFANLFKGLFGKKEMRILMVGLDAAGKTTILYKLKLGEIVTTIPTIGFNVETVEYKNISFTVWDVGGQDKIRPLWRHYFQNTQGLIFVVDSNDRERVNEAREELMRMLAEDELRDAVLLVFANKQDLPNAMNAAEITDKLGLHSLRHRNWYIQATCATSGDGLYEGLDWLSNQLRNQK
row,Variant,effect of a mutation on the interaction
1,Y1000A,decreasing interaction

# Variants of: B1
# Conditions: with arf1_mouse Arf1, P84078
# Remark: another data set of the same source
row,Variant,effect of a mutation on the interaction
1,I1054A,decreasing interaction
